Source: US20120309051A1 (UNIVERSITY OF MEDICINE AND DENTISTRY OF NEW JERSEY, published 2012)

Target: T1, GFP-MG53 (GFP fused to the amino-terminus of full-length mouse MG53) (mouse, UniProt Q1XH17 1-477)
T1 sequence: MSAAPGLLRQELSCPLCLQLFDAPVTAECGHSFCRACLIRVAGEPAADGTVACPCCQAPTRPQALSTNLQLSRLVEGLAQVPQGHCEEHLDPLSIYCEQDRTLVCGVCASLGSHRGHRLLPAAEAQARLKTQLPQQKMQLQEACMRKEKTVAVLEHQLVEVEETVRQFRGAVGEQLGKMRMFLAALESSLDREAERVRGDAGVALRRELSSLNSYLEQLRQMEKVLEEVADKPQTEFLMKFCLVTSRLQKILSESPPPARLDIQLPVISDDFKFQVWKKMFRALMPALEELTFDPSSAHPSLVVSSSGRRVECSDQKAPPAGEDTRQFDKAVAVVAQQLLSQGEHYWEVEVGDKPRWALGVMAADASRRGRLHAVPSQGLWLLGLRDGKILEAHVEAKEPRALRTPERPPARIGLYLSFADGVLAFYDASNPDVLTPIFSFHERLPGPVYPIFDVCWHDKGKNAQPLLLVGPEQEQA
Assay: cell-based or functional assay

B1: caveolin-3 (recombinant, expressed from pcDNA-Cav-3) (other)
chain: MMAEEHTDLEAQIVKDIHCKEIDLVNRDPKNINEDIVKVDFEDVIAEPVGTYSFDGVWKVSYTTFTVSKYWCYRLLSTLLGVPLALLWGFLFACISFCHIWAVVPCIKSYLIEIQCISHIYSLCIRTFCNPLFAALGQVCSSIKVVLRKEV
- reduction in the appearance of filapodia-like structures (C2C12 myoblasts transfected with caveolin-3 and GFP-MG53 in a ratio of 10:1): 82%
